Read-outs that look alike come from different tables or passages of the source.
B2: ID-A62U (VHH)
VHH: DVQLVESGGGLVQAGGSLRLSCESSISTFSSDAMGWFRQAPGKELEFLAAIGWSGAVTHYSDSVKGRFTISRDNAKNTVYLQMNSLRAEDTGRYYCAEDYDTDVWQYWGQGTQVTVSS
notes: V7R-2E9 with E1D, R45L, Q65K, K87R, S88A; produced in S. cerevisiae
B3: human IL-7Rα (receptor)
chain: ESGYAQNGDLEDAELDDYSFSCYSQLEVNGSQHSLTCAFEDPDVNTTNLEFEICGALVEVKCLNFRKLQEIYFIETKKFLLIGKSNICVKVGEKSLTCKKIDLTTIVKPEAPFDLSVIYREGANDFVVTFNTSHLQKKYVKVLMHDVAYRQEKDENKWTHVNLSSTKLTLLQRKLQPAAMYEIKVRSIPDHYFKGFWSEWSPSYYFRTPEINNSSGEMD
notes: native receptor on human lymphocytes, monocytes and UC biopsy tissue in the cell assays; also called CD127
B4: cynomolgus monkey IL-7Rα (receptor)
chain: ESGYAQNGDLEDAELDDYSFSCYSQLEVNGSQHSLTCAFEDPDVNTTNLEFEICGALVEVKCLSFRKLQEIYFIETKKFLLIGKSNICVKVGGKSLTCKKIDLTTIVKPEAPFDLSVIYREGANDFVVTFNTSHLQKKYVKVLMHDVAYRQEKDENKWMHVNLSSTKLTLLQRNLQPEAMYEIKVRSIPDHYFKGFWSEWSPSYYFRTPEINNSPGEMD
notes: also called cynomolgus IL-7Rα
B5: ID-A59U (VHH)
VHH: DVQLVESGGGLVQAGGSLRLSCESSISTFSSDAMGWFRQAPGKEREFLAAIGWSGAVTHYSDSVKGRFTISRDNAKNTVYLQMNSLRAEDTGRYYCAEDYDTDVWQYWGQGTQVTVSS
notes: V7R-2E9 with E1D, Q65K, K87R, S88A; S. cerevisiae-expressed equivalent of ID-A40U

Assays:
human IL-7Rα [1] = biological target: B3; assay: cell-based or functional assay
human IL-7Rα [2] = biological target: B3; assay: cell-based or functional assay
[3] = biological target: T1, recombinant human IL-7Rα-His6-Fc (human, UniProt P16871 21-239); assay: IL-7/IL-7Rα-His6-Fc ELISA; inhibition of IL-7 binding to IL-7R
T1 construct: also called hIL-7R; not shown: His6 tag; Fc (captured by anti-human IgG Fc)
T1 chain: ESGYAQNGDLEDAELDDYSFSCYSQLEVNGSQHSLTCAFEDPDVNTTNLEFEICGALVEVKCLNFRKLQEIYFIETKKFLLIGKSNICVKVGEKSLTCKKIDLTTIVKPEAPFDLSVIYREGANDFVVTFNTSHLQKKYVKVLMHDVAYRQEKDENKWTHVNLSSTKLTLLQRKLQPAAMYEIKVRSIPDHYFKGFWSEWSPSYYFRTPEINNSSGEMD

[4] = biological target: T1, recombinant human IL-7Rα-His6-Fc; assay: IL-7/IL-7R neutralising ELISA; inhibition of IL-7 binding to IL-7R
Protocol: (§1) A 7-point dilution series of the clones was prepared in 1% BSA (at 2× the assay concentration) starting at 300 nM and using a 3.2 dilution factor. […] Block buffer alone was also added to each plate as blank. […] TMB reaction was stopped after 30 minutes.
EC₅₀ values were generated in Graphpad prism using the ELISA signal blank corrected A450 data and ‘log(inhibitor) vs. response—Variable slope (four parameters)’ to fit curves and generate EC₅₀.

[5] = biological target: T1, recombinant human IL-7Rα-His6-Fc; assay: as above
Protocol: as §1

[6] = biological target: T1, recombinant human IL-7Rα-His6-Fc; assay: IL-7/IL-7R neutralisation ELISA; inhibition of IL-7 binding to IL-7R
Protocol: A 7-point dilution series of the clones was prepared in 1% BSA (at 2× the assay concentration) starting at 300 nM and using a 3.2 dilution factor. […] Block buffer alone was also added to each plate as blank. […] TMB reaction was stopped after 30 minutes. […]

[7] = biological target: T1, recombinant human IL-7Rα-His6-Fc; assay: as above
[8] = biological target: T1, recombinant human IL-7Rα-His6-Fc; assay: TSLP/TSLPR/IL-7R ELISA; inhibition of L-TSLP/TSLP-R complex binding to plate-coated IL-7Rα-His6-Fc
Protocol: (§2) 96-well plates were coated with 0.25 μg/mL recombinant human IL-7Rα-His₆-Fc+ 5 μg/mL BSA and then blocked. […] Then the mixtures were incubated for 30 minutes to allow binding before adding to the IL-7Rα coated plates.

[9] = biological target: T1, recombinant human IL-7Rα-His6-Fc; assay: IL-7/IL-7R neutralisation ELISA; inhibition of IL-7 binding to IL-7R
[10] = biological target: T1, recombinant human IL-7Rα-His6-Fc; assay: TSLP/TSLPR/IL-7R ELISA; inhibition of L-TSLP/TSLP-R complex binding to plate-coated IL-7Rα-His6-Fc
Protocol: as §2
A subtraction was performed on the data set before graphing which normalised to the highest concentration of antibody tested (to overcome a high level of background on the plate).

cynomolgus monkey IL-7Rα [11] = biological target: B4; assay: competition ELISA: A62U premixed with serially diluted soluble IL-7R, then added to plate-coated human IL-7Rα-His6-Fc; bound ICVD detected [right panel (cross-reactivity A62U]
Protocol: (§3) 96-well plates were coated with 0.5 μg/mL recombinant human IL-7Rα His₆-Fc +5 μg/mL BSA and then blocked. 0.5 nM of ICVD was mixed 1:1 with the test compounds of choice serially diluted in 1% BSA, then incubated for 30 minutes to allow binding before adding to the IL-7Rα coated plates. Following 2 hours incubation, bound ICVD was detected with 50 uL/well 1/20000 anti-FLAG-HRP Goat antibody (GeneTex, GTX21238), and the level of neutralisation of ICVD-IL-7Rα binding by the test compounds was determined.

ID-A40U [12] = biological target: T2, ID-A40U; assay: competition ELISA: ID-A40U premixed with serially diluted soluble IL-7R, then added to plate-coated human IL-7Rα-His6-Fc; bound ICVD detected
T2 construct: V7R-2E9 with Q65K, K87R, S88A; produced in E. coli; also called A40U-F/H; not shown: Flag-His6 tag
Protocol: as §3

ID-A40U [13] = biological target: T2, ID-A40U; assay: competition ELISA: ID-A40U premixed with serially diluted soluble receptor, then added to plate-coated human IL-7Rα; bound ICVD detected [left panel]
Protocol: as §3

ID-A40U [14] = biological target: T2, ID-A40U; assay: competition ELISA: ID-A40U premixed with serially diluted soluble receptor, then added to plate-coated human IL-7Rα; bound ICVD detected [right panel]
Protocol: as §3

ID-A59U = biological target: B5; assay: competition ELISA: A59U premixed with serially diluted soluble IL-7R, then added to plate-coated human IL-7Rα-His6-Fc; bound ICVD detected [left panel (cross-reactivity A59U]
Protocol: as §3

ID-A62U = biological target: B2; assay: competition ELISA: A62U premixed with serially diluted soluble IL-7R, then added to plate-coated human IL-7Rα-His6-Fc; bound ICVD detected [right panel (cross-reactivity A62U]
Protocol: as §3

cynomolgus monkey IL-7Rα [15] = biological target: B4; assay: competition ELISA: A59U premixed with serially diluted soluble IL-7R, then added to plate-coated human IL-7Rα-His6-Fc; bound ICVD detected [left panel (cross-reactivity A59U]
Protocol: as §3

B1: V7R-2E9 (VHH)
VHH: EVQLVESGGGLVQAGGSLRLSCESSISTFSSDAMGWFRQAPGKEREFLAAIGWSGAVTHYSDSVQGRFTISRDNAKNTVYLQMNSLKSEDTGRYYCAEDYDTDVWQYWGQGTQVTVSS
notes: llama ICVD, primary clone, expressed in E. coli TG1; parent of the ID-A series; not shown: C-terminal FLAG and 6xHis tags from vector pMEK222
B1 was tested, and the “IL-7 induced pSTAT5 in hPBMCs EC50” value (human IL-7Rα [1]) was 2.86 nM, the “IL-7 induced pSTAT5 in hPBMCs EC50” value (human IL-7Rα [2]) was 2.86 nM and the EC50 [3] was 0.6 nM. The EC50 [4] was 0.368 nM, the EC50 [5] was 0.818 nM and the EC50 [6] was 0.37 to 0.67 nM. It also gave an EC50 [7] of 0.818 nM and an EC50 [8] of 0.32 nM.

For B2, the EC50 [9] was 0.4 nM, the EC50 [10] was 0.74 nM and the binding result (cynomolgus monkey IL-7Rα [11]) was “binds”.

In the case of B3, the “IC50 (read off the curve)” value (ID-A40U [12]) is reported as ~0.03 µg/mL, the “IC50 (read off the curve)” value (ID-A40U [13]) is reported as ~0.02 µg/mL and the “IC50 (read off the curve)” value (ID-A40U [14]) is reported as ~0.02 µg/mL.

In the case of B4, the “IC50 (read off the curve)” value (ID-A40U [12]) is reported as ~0.01 µg/mL, the “IC50 (read off the curve)” value (ID-A59U) is reported as ~0.03 µg/mL and the “IC50 (read off the curve)” value (ID-A62U) is reported as ~0.02 µg/mL.

B5: binds (cynomolgus monkey IL-7Rα [15]).
